According to the RNAGym collection of RNA variant scans (doi:10.1093/nar/gkz1192):

B1: CPEB3 Ribozyme (parent)
chain: UAACAGGGGGCCACAGCAGAAGCGUUCACGUCGCAGCCCCUGUCAGAUUCUGGUGAAUCUGCGAAUUCUGCUGUAUAUCUC

Variants of: B1
Test: self-cleavage, relative activity (ratio to wild type); higher = more cleavage; in vitro, sequencing
Method in brief: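 Relative activity was defined as the cleaved/total read fraction for a variant divided by the same fraction for the unmutated ribozyme. CPEB3 self-cleaving ribozyme libraries were made by rounds of error-prone PCR, barcoded, and transcribed in vitro with T7 RNA polymerase for 5 hours at 37°C, and cleavage ran through transcription plus a 15 min DNase I step before EDTA. Illumina sequencing of template-switched reverse transcripts gave the reads, and DNA sequencing mapped the barcodes. Averages come from three batches, using variants with at least 5 reads.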

Variant | self-cleavage
UAACAGGGGGCCACAGCAGAAGCGUUCACGUCGCAGCCCCUGUCAGAUUUUGGUGAAUCUGCGAAAUCUGCUGUAUAUCUC [C50U U66A] | 0.22
UAACAGGGGGCCACAGCAGAAGCGUUCACGUCGCAGCCCCUGUCAGAUUUUGGUGAAUCUGCGAACUCUGCUGUAUAUCUC [C50U U66C] | 0.45
UAACAGGGGGCCACAGCAGAAGCGUUCACGUCGCAGCCCCUGUCAGAUUGUGGUGAGUCUGCGAAUUCUGCUGUAUAUCUC [C50G A57G] | 0.51
UAACAGGGGGCCACAGCAGAAGCGUUCACGUCGCAGCCCCUGUCAGAUUAUGGUGAAUCUGCGAAUUCUGCUGUAUAUCAC [C50A U80A] | 0.83
UAACAGGGGGCCACAGCAGAAGCGUUCACGUCGCAGCCCCUGUCAGAUUAUGGUGAAUCUGCGAAUUCUGCUGUAUAUCCC [C50A U80C] | 1.05
UAACAGGGGGCCACAGCAGAAGCGUUCACGUCGCAGCCCCUGUCAGAUUUUGGUGAAUCUGCGAAUUCUGCUGUAUGUCUC [C50U A77G] | 1.11
UAACAGGGGGCCACAGCAGAAGCGUUCACGUCGCAGCCCCUGUCAGAUUAUGGUGAAUCUGCGAAUACUGCUGUAUAUCUC [C50A U67A] | 0.38
UAACAGGGGGCCACAGCAGAAGCGUUCACGUCGCAGCCCCUGUCAGAUUAUGGUGAAUCUGCGAAUCCUGCUGUAUAUCUC [C50A U67C] | 0.2
UAACAGGGGGCCACAGCAGAAGCGUUCACGUCGCAGCCCCUGUCAGAUUAUGGUGAAUCUGCGAAUUCUGCUGUAUACCUC [C50A U78C] | 0.71
UAACAGGGGGCCACAGCAGAAGCGUUCACGUCGCAGCCCCUGUCAGAUUAUGGUGAAUCUGCGAAUUCUGCUGUAUAGCUC [C50A U78G] | 1.06
UAACAGGGGGCCACAGCAGAAGCGUUCACGUCGCAGCCCCUGUCAGAUUUUGGUGAAUCUGCGAAUUCUGCUGUUUAUCUC [C50U A75U] | 1.22
UAACAGGGGGCCACAGCAGAAGCGUUCACGUCGCAGCCCCUGUCAGAUUCAGGUGAAUCUGCGAUUUCUGCUGUAUAUCUC [U51A A65U] | 0.21
UAACAGGGGGCCACAGCAGAAGCGUUCACGUCGCAGCCCCUGUCAGAUUCAGGUGAAUCUGCGAGUUCUGCUGUAUAUCUC [U51A A65G] | 0.48
UAACAGGGGGCCACAGCAGAAGCGUUCACGUCGCAGCCCCUGUCAGAUUAUGGUGAAUCUGCGAAUUCUGCUGCAUAUCUC [C50A U74C] | 0.87
UAACAGGGGGCCACAGCAGAAGCGUUCACGUCGCAGCCCCUGUCAGAUUGUGGUGAAUCUGCGAAUUCUGCUGUAUAUCUC [C50G] | 0.8
UAACAGGGGGCCACAGCAGAAGCGUUCACGUCGCAGCCCCUGUCAGAUUUUGGUGAAUCUGCGAAUUCUGCUGUAUAUCUC [C50U] | 1.01
UAACAGGGGGCCACAGCAGAAGCGUUCACGUCGCAGCCCCUGUCAGAUUGUGGUGUAUCUGCGAAUUCUGCUGUAUAUCUC [C50G A56U] | 0.45

Variant | self-cleavage
UAACAGGGGGCCACAGCAGAAGCGUUCACGUCGCAGCCCCUGUCAGAUUUUGGUGAAUCUGCGAAUUCCGCUGUAUAUCUC [C50U U69C] | 0.41
UAACAGGGGGCCACAGCAGAAGCGUUCACGUCGCAGCCCCUGUCAGAUUGCGGUGAAUCUGCGAAUUCUGCUGUAUAUCUC [C50G U51C] | 0.68
UAACAGGGGGCCACAGCAGAAGCGUUCACGUCGCAGCCCCUGUCAGAUUGUGGUGAAUCUGCGAAUUCUGCUGUAUACCUC [C50G U78C] | 0.71
UAACAGGGGGCCACAGCAGAAGCGUUCACGUCGCAGCCCCUGUCAGAUUCAGGUGAUUCUGCGAAUUCUGCUGUAUAUCUC [U51A A57U] | 0.53
UAACAGGGGGCCACAGCAGAAGCGUUCACGUCGCAGCCCCUGUCAGAUUCAGGUGAGUCUGCGAAUUCUGCUGUAUAUCUC [U51A A57G] | 0.56
UAACAGGGGGCCACAGCAGAAGCGUUCACGUCGCAGCCCCUGUCAGAUUUUGGUGAAUCUGCGAAUUCUGCUGUAUACCUC [C50U U78C] | 0.97
UAACAGGGGGCCACAGCAGAAGCGUUCACGUCGCAGCCCCUGUCAGAUUUUGGUGAAUCUGCGAAUUCUGCUGUAUAACUC [C50U U78A] | 1.12
UAACAGGGGGCCACAGCAGAAGCGUUCACGUCGCAGCCCCUGUCAGAUUAUGGUGAAUCUGCGAAUUCAGCUGUAUAUCUC [C50A U69A] | 0.42
UAACAGGGGGCCACAGCAGAAGCGUUCACGUCGCAGCCCCUGUCAGAUUAUGGUGAAUCUGCGAAUUCCGCUGUAUAUCUC [C50A U69C] | 0.49
UAACAGGGGGCCACAGCAGAAGCGUUCACGUCGCAGCCCCUGUCAGAUUUUGGUGAAUCUGCGAAUUCUGCAGUAUAUCUC [C50U U72A] | 0.28
UAACAGGGGGCCACAGCAGAAGCGUUCACGUCGCAGCCCCUGUCAGAUUUUGGUGAAUCUGCGAAUUCUGCCGUAUAUCUC [C50U U72C] | 1.13
UAACAGGGGGCCACAGCAGAAGCGUUCACGUCGCAGCCCCUGUCAGAUUAUGGUGAAUCUGCGAACUCUGCUGUAUAUCUC [C50A U66C] | 0.3
UAACAGGGGGCCACAGCAGAAGCGUUCACGUCGCAGCCCCUGUCAGAUUCAGGUGAAUCUGAGAAUUCUGCUGUAUAUCUC [U51A C62A] | 0.22
UAACAGGGGGCCACAGCAGAAGCGUUCACGUCGCAGCCCCUGUCAGAUUGUGGUGAAUCUGCGAAUUCCGCUGUAUAUCUC [C50G U69C] | 0.14
UAACAGGGGGCCACAGCAGAAGCGUUCACGUCGCAGCCCCUGUCAGAUUGUGGUGAAUCUGCGAAUUCAGCUGUAUAUCUC [C50G U69A] | 0.17
UAACAGGGGGCCACAGCAGAAGCGUUCACGUCGCAGCCCCUGUCAGAUUUUGGCGAAUCUGCGAAUUCUGCUGUAUAUCUC [C50U U54C] | 0.77
UAACAGGGGGCCACAGCAGAAGCGUUCACGUCGCAGCCCCUGUCAGAUUUUGGGGAAUCUGCGAAUUCUGCUGUAUAUCUC [C50U U54G] | 0.74
